According to patent publication US9333268B2, “Methods of treatment with arginine deiminase” (Polaris Group, priority 2012, dated 2016):

What was measured:
[1] = in the mice; cited from earlier work
NCI-H69 xenografts = assay: ASS-positive NCI-H69 SCLC xenografts in BALB/c-nude mice; type: in vivo; conditions: five doses of 2 IU over 20 days, intraperitoneal
Description: (§1) The activity of ADI-PEG 20 was also assessed in mice bearing ASS-positive NCI-H69 SCLC xenografts. Small cell lung cancer xenografts were established in female BALB/c-nude mice, 3-4 weeks of age weighing ˜20 g (Charles River Labs, Wilmington, Mass., USA). To establish the tumors, 10×10^6 cells in media were mixed 1:1 with Matrigel High Concentration (BD Biosciences) and injected subcutaneously in the abdominal area of the mice. Tumor growth was regularly measured and tumor volume calculated using the formula (TV=(length×width^2)/2). All animal studies were approved by the MSKCC Institutional Animal Care and Use Committee. Mice were euthanized when tumors reached an approximate volume of 1,000 mm^3.
The anti-tumor efficacy of ADI-PEG 20 was simultaneously assessed in mice bearing either moderate or large SK-LC-13 SCLC xenografts. In the first study, treatment was initiated once tumors had reached an average size of 125 mm^3. In the large xenograft study, treatment was initiated once tumors had reached an average size of 500 mm^3. Arginine deiminase-PEG20 was administered at doses of 1, 2 and 5 IU per animal once every 5 days for 20 days (five doses). […] Additionally, the efficacy of ADI-PEG 20 was assessed in mice bearing ASS-positive NCI-H69 xenografts. […]

SK-LC-13 cells = assay: Western blot of active caspase 3; type: cell-based, human
Description: Following washing, the membranes were then probed with the appropriate secondary antibody before proteins were finally visualized using ECL reagent (Perkin-Elmer, Fremont Calif., USA).
In order to determine the possible mechanism of the antiproliferative effects of ADI-PEG 20 a FACS analysis of apoptosis by sub-G1 DNA content was performed. Cells were treated for 72 h before the analysis was performed.

SK-LC-13 xenografts = assay: Moderately sized SK-LC-13 SCLC xenografts in BALB/c-nude mice; type: in vivo
Description: as §1
The anti-tumor efficacy of ADI-PEG 20 was simultaneously assessed in mice bearing either moderate or large SK-LC-13 SCLC xenografts. In the first study, treatment was initiated once tumors had reached an average size of 125 mm^3. In the large xenograft study, treatment was initiated once tumors had reached an average size of 500 mm^3. Arginine deiminase-PEG20 was administered at doses of 1, 2 and 5 IU per animal once every 5 days for 20 days (five doses). To assess the effect of sustained dosing, further groups (n=5) at all dose levels received continued administration of ADI-PEG 20 every 5 days until tumors progressed to the 1,000 mm^3 size limit. Additionally, the efficacy of ADI-PEG 20 was assessed in mice bearing ASS-positive NCI-H69 xenografts. Here, mice received five doses of 2 IU ADI-PEG 20 for 20 days once tumor had reached an average size of 150 mm^3. Arginine deiminase-PEG20 was administered by intraperitoneal injection in all studies. The specific activity of ADI-PEG 20 used in these studies is 9 IU mg^−1 of protein. Thus, 1 IU of ADI-PEG 20 per 20 g mouse is equivalent to 160 IU m^−2.
Efficacy of ADI-PEG 20 treatment in vivo was assessed by comparing means of control and treatment groups using unpaired two-tailed t-tests at the termination of control groups using GraphPad Prism (Version 5.0, GraphPad Software Inc., La Jolla, Calif., USA).

[2] = tested on: ASS-negative SCLC cell line SK-LC-13; assay: MTS proliferation assay, adherent cells; type: cell-based, human; conditions: 0 to 10 mIU ml^−1, 120 h
Description: (§2) To assess the anti-proliferative effect of ADI-PEG 20 on adherent cells, cells were plated a density of 2×10^3 cells per well in a tissue culture 96-microwell plate and allowed to adhere overnight. The following day, cells were treated with ADI-PEG 20 (DesigneRx Pharmaceuticals, Vacaville, Calif., USA, a subsidiary of Polaris Group, San Diego, Calif., USA) ranging from 0 to 10 mIU ml^−1. After incubation for 120 h, cell viability was determined using (3-(4,5-dimethylthiazol-2-yl)-5-(3-carboxymethoxyphenyl)-2-(4-sulfophenyl)-2H-tetrazolium) (MTS, CellTiter 96 AQueous One Solution, Promega, Madison, Wis., USA), according to the manufacturers protocol. Twenty microliters of MTS reagent was added to the appropriate control and assay wells before the plate was incubated for 2 h at 37° C. and absorbance read at 490 nm. Absolute absorbance for each treatment was determined by subtracting the background MTS absorbance, and the mean and standard deviation was calculated. The effect of the autophagy inhibitor chloroquine (Sigma) on cell proliferation was assessed using the MTS assay.

[3] = tested on: ASS-negative SCLC cell line SW1271; assay: MTS proliferation assay, adherent cells; type: cell-based, human; conditions: 0 to 10 mIU ml^−1, 120 h
Description: as §2

B1: ADI-PEG 20: arginine deiminase (ADI) formulated with PEG of 20,000 m.w. (protein)
chain: MSVFDSKFNGIHVYSEIGELETVLVHEPGREIDYITPARLDELLFSAILESHDARKEHQSFVKIMKDRGINVVELTDLVAETYDLASKAAKEEFIETFLEETVPVLTEANKEAVRAFLLSKPTHEMVEFMMSGITKYELGVESENELIVDPMPNLYFTRDPFASVGNGVTIHFMRYIVRRRETLFARFVFRNHPKLVKTPWYYDPAMKMSIEGGDVFIYNNETLVVGVSERTDLDTITLLAKNIKANKEVEFKRIVAINVPKWTNLMHLDTWLTMLDKNKFLYSPIANDVFKFWDYDLVNGGAEPQPQLNGLPLDKLLASIINKEPVLIPIGGAGATEMEIARETNFDGTNYLAIKPGLVIGYDRNEKTNAALKAAGITVLPFHGNQLSLGMGNARCMSMPLSRKDVKW
half-life [1]: ~170 h | tumor growth (NCI-H69 xenografts): did not produce any effect on tumor growth | activation of caspases (SK-LC-13 cells): no activation of caspases | tumor growth relative to control mice (SK-LC-13 xenografts; 1, 2 and 5 IU per animal every 5 days, intraperitoneal): significant and dose-dependent reduction in tumor growth | mean tumor volumes, short vs continued dosing (SK-LC-13 xenografts; 1 IU (P=0.251)): not significantly different | mean tumor volumes, short vs continued dosing (SK-LC-13 xenografts; 2 IU (P=0.084)): not significantly different | tumor size, continued dosing vs dosing for only 20 days (SK-LC-13 xenografts; 5 IU every 5 days, at completion of the study (P=0.0063)): significantly smaller | mean tumor volume of control mice compared with ADI-PEG 20-treated groups (SK-LC-13 xenografts; day 33, regardless of dose or schedule (P>0.0001)): significantly larger | proliferation [2]: clear dose-dependent decrease in proliferation | proliferation [3]: clear dose-dependent decrease in proliferation
